Data: patent US20230220098A1, “THERAPEUTIC DRUG FOR POLYCYTHEMIA” (PERSEUS PROTEOMICS INC., priority 2019, published 2023)

Legend:
[1] = system: soluble wild-type TfR (sTfR) and TfR mutant fragments (MF1 to MF7); experiment: ELISA reactivity with soluble wild-type TfR and TfR mutant fragments (binding site identification); design: species or system human; settings: TfR436 1 ug/mL; MF5 (positions 629, 630 and 633 substituted); FIG. 2
Procedure: (§1) A neomycin resistance gene and a DHFR gene were incorporated into the expression vector pCAGGS (Non-Patent Document 2: Niwa et al. 1991), and thereafter, the synthesized genes were each inserted into the multicloning site of the obtained expression vector, so as to produce a pCAGGS-Neo-DHFR-sTFR-myc-his expression plasmid. Using Expifectamine (Invitrogen), the Expi293 cells (Invitrogen) were transfected with the above-described plasmid, and were then cultured at 37° C. in 8% CO2 at 135 rpm for 5 days. Thereafter, a culture supernatant was recovered by centrifugation. A HisTrapHP (GE Healthcare) column was connected with AKTA prime (GE Healthcare), and sTfR or MF1 to MF7 were then purified using 20 mM Imidazole/DPBS as a binding buffer and 500 mM Imidazole/DPBS as an elution buffer. The eluted protein was subjected to buffer exchange with 30 mM HEPES, 5% trehalose, pH 7.2, by using a Zeba spin column (Thermo scientific).
(§2) The thus purified sTfR or MF1 to MF7 were diluted with PBST (Phosphate Buffered Saline with Tween 20, TaKaRa), and the diluted solutions were prepared at 7 stages by 3-fold dilution from 600 ng/mL. […] Thereafter, the absorbance at 450 nm (ref. 620 nm) was measured using a plate reader.

[2] = target: T1, soluble wild-type TfR (sTfR) and TfR mutant fragments (MF1 to MF7) (Homo sapiens, UniProt P02786); experiment: as above; settings: suggested from mutant fragment reactivity
T1 construct: A human TfR extracellular domain (the amino acids at positions 89 to 760); made in house; host or cells: Expi293 cells
Procedure: as §1, §2

erythroblast cells = experiment: Growth of normal erythroblast cells derived from CD34-positive cells; type: cell-based; settings: FIG. 4
Procedure: Frozen CD34-positive cells (POIETICS) were thawed at 37° C., and were then suspended in IMDM (GIBCO)+30% FBS (Sigma-Aldrich) and 100 U/ml DNase (QIAGEN), and thereafter, the cells were […] according to the instructions of the manufacturer. Thereafter, the cells were adjusted to 5×10^4 cells/ml with a culture medium prepared by adding 2-ME (50 μmol/L) (GIBCO), hIL-3 (100 U/ml) (Milteny biotec), hEPO (4 U/ml) (Roche), and hSCF (50 ng/ml) (Peprotech) to an SF-03 medium (EIDIA Co., Ltd.). The resulting cells were dispensed into a 24-well plate in an amount of 1 ml/well, and were then cultured at 37° C. in a 5% CO2 incubator. Seven days later, the cells were seeded into a 96-well plate, and the antibody was then added thereto in an amount of 0.15 ng/mL to 10 μg/mL, followed by culturing the mixture. A well without addition of the antibody was used as a control. Ninety six hours later, each well was fully stirred by pipetting, and 150 μl of the cell lysate was transferred into a V-bottom plate. Then, 20 μI of the transferred cell lysate was absorbed by FACS Calibur, and the number of cells was then counted. The value obtained by multiplying the obtained cell number by 10 was set to be the number of cells per well, and the growth percentage of the cells at each concentration of the antibody was then calculated, while the mean value of the control was set to be 100%.

hamster TfR = hamster TfR (Cricetulus griseus, UniProt Q07891); experiment: Cross-reactivity of TfR436 antibody with hamster TfR; type: binding
hamster TfR, sequence (Q07891 whole entry): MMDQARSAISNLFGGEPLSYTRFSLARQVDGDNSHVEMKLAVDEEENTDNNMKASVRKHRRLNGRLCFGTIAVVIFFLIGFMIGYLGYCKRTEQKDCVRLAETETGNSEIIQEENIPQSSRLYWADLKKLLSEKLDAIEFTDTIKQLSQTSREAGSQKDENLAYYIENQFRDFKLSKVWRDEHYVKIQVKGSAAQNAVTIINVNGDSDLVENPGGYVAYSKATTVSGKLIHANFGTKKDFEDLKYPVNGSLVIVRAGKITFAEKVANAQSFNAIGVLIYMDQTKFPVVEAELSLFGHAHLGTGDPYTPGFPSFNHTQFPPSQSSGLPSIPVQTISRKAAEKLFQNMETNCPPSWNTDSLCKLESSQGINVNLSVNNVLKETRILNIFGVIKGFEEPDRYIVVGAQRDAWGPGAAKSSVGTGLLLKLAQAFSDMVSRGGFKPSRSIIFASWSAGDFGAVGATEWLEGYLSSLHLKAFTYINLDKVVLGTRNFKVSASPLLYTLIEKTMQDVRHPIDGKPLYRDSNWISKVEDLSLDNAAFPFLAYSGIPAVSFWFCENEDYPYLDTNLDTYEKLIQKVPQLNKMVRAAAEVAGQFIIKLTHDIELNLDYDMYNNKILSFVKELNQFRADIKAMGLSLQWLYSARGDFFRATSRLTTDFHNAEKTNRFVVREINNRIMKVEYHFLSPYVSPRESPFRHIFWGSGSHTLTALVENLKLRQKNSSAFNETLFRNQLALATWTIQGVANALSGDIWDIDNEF

T1 sequence (P02786 89-760, change not shown): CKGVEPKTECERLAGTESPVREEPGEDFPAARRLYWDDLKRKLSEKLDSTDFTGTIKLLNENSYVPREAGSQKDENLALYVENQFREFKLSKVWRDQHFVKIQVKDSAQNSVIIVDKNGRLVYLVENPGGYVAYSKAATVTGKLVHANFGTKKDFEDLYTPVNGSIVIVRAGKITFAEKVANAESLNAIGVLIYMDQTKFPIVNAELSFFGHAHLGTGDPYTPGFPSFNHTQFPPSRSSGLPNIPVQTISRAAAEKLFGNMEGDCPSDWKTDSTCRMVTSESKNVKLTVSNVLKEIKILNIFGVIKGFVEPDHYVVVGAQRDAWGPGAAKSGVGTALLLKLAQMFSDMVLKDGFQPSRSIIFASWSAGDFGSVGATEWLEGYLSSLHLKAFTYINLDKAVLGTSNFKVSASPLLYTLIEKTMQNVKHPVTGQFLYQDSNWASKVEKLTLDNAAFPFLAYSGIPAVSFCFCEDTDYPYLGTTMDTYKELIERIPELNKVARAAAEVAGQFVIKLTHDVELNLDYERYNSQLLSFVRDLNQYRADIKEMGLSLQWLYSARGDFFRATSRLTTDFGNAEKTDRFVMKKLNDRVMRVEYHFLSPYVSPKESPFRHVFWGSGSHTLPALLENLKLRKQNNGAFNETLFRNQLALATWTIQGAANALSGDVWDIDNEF

B1: TfR436: anti-human transferrin receptor antibody, VH SEQ ID NO: 7 and VL SEQ ID NO: 8, described in WO2014/073641; called PPMX-T003 in Tables 3 and 4 (antibody, listed as Homo sapiens, V domains shown)
VH: DVQLVQSGGGVVQPGRSLRLSCAASGFPFKSYGMHWVRQAPGKGLEWVAVISYDGSNKYYADSVKGRFTISRDNSKNTLYLQMNSLRGEDTAVYYCARDSNFWSGYYSPVDVWGQGTTVTVSS
VL: NFMLTQPHSVSESPGKTVTISCTRSSGSIASNSVQWYQQRPGSAPITVIYEDTQRPSGVPDRFSGSIDSSSNSASLTISGLQTEDEADYYCQSYDSAYHWVFGGGTKLAVL
[1]
  reactivity with TfR mutant fragment MF5: a reduction in the reactivity
[2]
  epitope recognized: amino acids at positions 629 to 633 of TfR
Erythroblast cells; 0.15 ng/mL to 10 μg/mL, 96 hours
  growth of erythroblast cells: suppressed the growth
Erythroblast cells; 96 hours culture
  GI50: 0.125 µg/mL
Hamster TfR
  cross-reactivity with hamster TfR: exhibited cross-reactivity
